Data reported in article doi:10.1101/2025.05.22.655646 (bioRxiv, 2025).

B1: G001_gp1_V10_VRC01c_2021-0087 (antibody, V domains shown)
VH: QVQLVQSGAEVKKPGASVKVSCKASGYTFTGNYIHWVRQAPGQGLEWVGWLNPNSGGTNYAQQFQGRVTMTRDTSISTAYMELNRLRSDDTAVFYCARGLWQWEFRYWGQGTLVTVSS
VL: DIVLTQSPGTLSLSPGERATLSCRASQSVSSSNLAWYQQKPGQAPRLLIYGASSRATGIPDRFSGSGSGTDFTLTISRLEPEDCAVYYCQQYEGFGGGTKVEIK
notes: also called G001-0087
B2: G001_LD_07A_VRC01c_58 (antibody, V domains shown)
VH: QVQLVQSGAEVRKPGASVKVSCKASGYTFTDYYIHWVRQAPGQGLEWMGWINPNSGGTNYAQKFQGWVTMTRDTSISTAHMELRRLRSDDRAVYYCARGVVHSGFEFGYWGQGTLVTVSS
VL: DIQMTQSPSTLSASVGDRVTITCRASQSISNWLAWYQQKPGKAPKLLIYKASSLESGVPSRFSGSGSGTEFTLTISSLQPDDFATYYCQQYETFGQGTKVEIK
notes: also called G001-58
B3: G001_LD_07A_VRC01c_59 (antibody, V domains shown)
VH: QVQLVQSGAEVKKPGTSVKVSCKASEYTFTGYYVHWVRQAPGQGLEWMGWINPNSGGTNYAQKFQGWVTMTRDTSISTAYMELSRLKSDDTAVYYCARSDYISSWYFGYWGQGTLVTVSS
VL: EIVMTQSPATLSVSPGERATLSCRASQSVSSNLAWYQQKPGQAPRLLIYGTSTRATGIPARFSGSGSGTEFTLTISSLQSEDFAVYYCQQYETFGQGTKVEIK
notes: also called G001-59
B4: G001_gp1_V10_VRC01c_179 (antibody, V domains shown)
VH: QVQLVQSGADVKKPGASVKVSCKASGYTFTDYYMHWVRQAPGQGLEWMGWINPNSGGTNYAQKFQDRVTMTRDTSVSTAYMEVSGLRSDDTAVYYCARIKLCNGGSCNWSLGYWGQGSLVTVSS
VL: DIQMTQSPSSLSASVGDRVTITCQASQDISNYLNWYQQKPGKAPKLLIYGASNLETGVPSRFSGSGSGTDFTFTISSLQPEDIATYYCQQYEFFGPGTKVDIK
notes: also called G001-179

target: T1, eOD-GT8 (Human immunodeficiency virus 1, …); test: SPR; monoclonal IgGs and eOD-GT8; as previously described (ref. 19); settings: both partners purified
T1 construct: also called engineered outer domain germline-targeting version 8; eOD-GT8 monomer

First: B1
Second: B2
The Kd of the first is 2.9-fold lower: 150 pM for the first, 437 pM for the second. The first binds more tightly here.

First: B3
Second: B4
The Kd of the first is 14-fold higher: 1760 pM for the first, 130 pM for the second. The second binds more tightly here.
